Results on two molecules are retold here after article PMC4745047, “Tuned by metals: the TET peptidase activity is controlled by 3 metal binding sites” (Scientific Reports, 2016).

Series [1] concerns the target T1, PfTET3 (TET3 aminopeptidase; PfTET3Zn) (Pyrococcus furiosus, UniProt Q8TZW4).
T1 construct: gene PF1861; Recombinant, pET-41c; purified as for PhTET3; homododecamer (about 500 kDa); as purified contains two Zn2+ per active site
T1 sequence (Q8TZW4 1-346): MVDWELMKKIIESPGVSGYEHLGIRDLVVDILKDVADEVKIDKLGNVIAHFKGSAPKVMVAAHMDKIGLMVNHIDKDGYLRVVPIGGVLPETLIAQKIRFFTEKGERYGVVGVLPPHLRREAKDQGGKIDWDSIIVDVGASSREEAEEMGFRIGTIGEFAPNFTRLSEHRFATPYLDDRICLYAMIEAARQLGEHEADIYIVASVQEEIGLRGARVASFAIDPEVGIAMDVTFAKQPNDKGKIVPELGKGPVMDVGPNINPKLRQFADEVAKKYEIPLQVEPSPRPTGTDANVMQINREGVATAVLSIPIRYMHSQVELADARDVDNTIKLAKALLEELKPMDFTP
Briefly: Lys-pNA hydrolysis, pNA release at […] nm, EDTA titration, biphasic fit. The class given is biochemical. The note with it: 85 °C; 5 mM Lys-pNA; 0.1 M HEPES pH 7.2, 316 mM KCl; 10 nM enzyme; metal chelation (M1 Zn2+ removal), not direct binding; first site of two; partial step; read-out: EC50_1.

For another series, the target named is Glu207 (UniProt position 207, VASVQEEIGLR). Briefly: kinetics. The conditions noted are these: not given for the pH series (standard assay: KCl 316 mM), not given for the pH series (standard assay: 0.1 M HEPES pH 7.2).

For `O=C(O)CN(CCN(CC(=O)O)CC(=O)O)CC(=O)O` [EDTA], the EC50 in series [1] was 13 µM.
Consider “TET3 aminopeptidase (PfTET3; lysine-specific tetrahedral aminopeptidase) (Pyrococcus furiosus)”, for which the pKa (usually the negative logarithm of the acid dissociation constant) came to 5.6 with Glu207 (20 °C, PfTET3Co: 300 uM Co2+ present (Co2+ in M1 and M3, Zn2+ in M2)); 5.9 with Glu207 (20 °C, PfTET3Zn: as purified, Zn2+ in M1 and M2, no Co2+ added); 4.45 with Glu207 (85 °C, PfTET3Co: 300 uM Co2+ present (Co2+ in M1 and M3, Zn2+ in M2)); 4.75 in the series with Glu207 (85 °C, PfTET3Zn: as purified, Zn2+ in M1 and M2, no Co2+ added).
